PMC9482650, “Quantitative fragmentomics allow affinity mapping of interactomes” (Nature Communications, 2022)

Experiments:
Assay in all cases: holdup assay
Parameters in all cases: key: below the threshold = too weak to quantify, mostly under pKd 3.1 to 4
Conditions in all cases: plain residues with an end cap or a label only (N-terminal biotin on a linker: ado-ado)
MPDZ_5, O75970 = molecular target: T1, MPDZ_5, O75970
T1 sequence (O75970 695-796, limits assumed, looked up): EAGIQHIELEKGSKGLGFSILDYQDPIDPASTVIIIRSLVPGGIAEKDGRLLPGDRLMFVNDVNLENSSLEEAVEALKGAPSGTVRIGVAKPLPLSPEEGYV

CASK, O14936 = molecular target: CASK, O14936
Chain of CASK, O14936 (O14936 487-570): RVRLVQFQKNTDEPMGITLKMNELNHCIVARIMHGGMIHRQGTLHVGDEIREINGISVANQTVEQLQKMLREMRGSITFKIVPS

MAGI2_5, Q86UL8 = molecular target: MAGI2_5, Q86UL8
Chain of MAGI2_5, Q86UL8 (Q86UL8 915-1017): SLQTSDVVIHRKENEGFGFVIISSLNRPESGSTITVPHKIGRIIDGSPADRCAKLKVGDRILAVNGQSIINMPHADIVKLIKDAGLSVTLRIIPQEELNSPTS

MAST1, Q9Y2H9 = molecular target: MAST1, Q9Y2H9
Chain of MAST1, Q9Y2H9 (Q9Y2H9 962-1065): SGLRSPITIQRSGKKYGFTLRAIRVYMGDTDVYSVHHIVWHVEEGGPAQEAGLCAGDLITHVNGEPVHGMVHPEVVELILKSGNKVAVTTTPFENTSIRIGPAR

GRIP2_6, Q9C0E4 = molecular target: GRIP2_6, Q9C0E4
Chain of GRIP2_6, Q9C0E4 (Q9C0E4 648-740): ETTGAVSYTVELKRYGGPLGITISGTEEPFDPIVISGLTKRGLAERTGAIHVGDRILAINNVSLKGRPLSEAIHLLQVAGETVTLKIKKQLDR

MAGI2_3, Q86UL8 = molecular target: MAGI2_3, Q86UL8
Chain of MAGI2_3, Q86UL8 (Q86UL8 600-682): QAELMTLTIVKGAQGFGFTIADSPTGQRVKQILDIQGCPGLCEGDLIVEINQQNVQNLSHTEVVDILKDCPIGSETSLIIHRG

Inadl_4, Q8NI35 = molecular target: Inadl_4, Q8NI35
Chain of Inadl_4, Q8NI35 (Q8NI35 547-651): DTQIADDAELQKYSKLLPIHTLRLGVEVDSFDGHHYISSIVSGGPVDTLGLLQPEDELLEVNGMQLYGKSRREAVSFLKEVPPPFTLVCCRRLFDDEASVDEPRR

MAGI3_2, Q5TCQ9 = molecular target: MAGI3_2, Q5TCQ9
Chain of MAGI3_2, Q5TCQ9 (Q5TCQ9 398-503): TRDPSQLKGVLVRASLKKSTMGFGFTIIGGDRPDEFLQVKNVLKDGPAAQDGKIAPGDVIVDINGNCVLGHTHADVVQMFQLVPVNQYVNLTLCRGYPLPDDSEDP

PDZRN4_1, Q6ZMN7 = molecular target: PDZRN4_1, Q6ZMN7
Chain of PDZRN4_1, Q6ZMN7 (Q6ZMN7 213-318): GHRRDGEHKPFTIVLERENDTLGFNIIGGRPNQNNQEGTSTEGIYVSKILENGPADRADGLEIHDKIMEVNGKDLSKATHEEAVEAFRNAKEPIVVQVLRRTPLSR

PTPN3, P26045 = molecular target: PTPN3, P26045
Chain of PTPN3, P26045 (P26045 505-587): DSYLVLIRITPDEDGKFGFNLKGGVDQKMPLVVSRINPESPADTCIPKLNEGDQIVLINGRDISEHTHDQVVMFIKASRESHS

IL16_1, Q14005 = molecular target: IL16_1, Q14005
Chain of IL16_1, Q14005 (Q14005 210-306): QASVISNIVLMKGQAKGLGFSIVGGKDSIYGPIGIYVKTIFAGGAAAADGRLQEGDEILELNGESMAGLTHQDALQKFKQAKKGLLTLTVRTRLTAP

RADIL, Q96JH8 = molecular target: T2, RADIL, Q96JH8
T2 sequence (Q96JH8 971-1071, limits assumed, looked up): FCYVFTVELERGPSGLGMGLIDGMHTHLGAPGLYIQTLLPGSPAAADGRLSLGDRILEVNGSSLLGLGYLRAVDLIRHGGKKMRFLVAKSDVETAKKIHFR

DFNB31_2, Q9P202 = molecular target: T3, DFNB31_2, Q9P202
T3 sequence (Q9P202 274-371, limits assumed, looked up): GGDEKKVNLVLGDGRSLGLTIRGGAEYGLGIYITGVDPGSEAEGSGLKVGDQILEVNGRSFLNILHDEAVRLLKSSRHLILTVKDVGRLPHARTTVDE

GRIP1_7, Q9Y3R0 = molecular target: T4, GRIP1_7, Q9Y3R0
T4 sequence (Q9Y3R0 999-1096, limits assumed, looked up): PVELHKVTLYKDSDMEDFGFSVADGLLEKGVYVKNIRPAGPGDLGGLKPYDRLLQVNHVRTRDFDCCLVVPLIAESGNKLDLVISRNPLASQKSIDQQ

MPDZ_10, O75970 = molecular target: T5, MPDZ_10, O75970
T5 sequence (O75970 1624-1722, limits assumed, looked up): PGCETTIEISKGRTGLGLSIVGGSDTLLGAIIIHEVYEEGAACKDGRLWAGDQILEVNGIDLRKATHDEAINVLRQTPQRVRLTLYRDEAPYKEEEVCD

FRMPD4, Q14CM0 = molecular target: FRMPD4, Q14CM0
Chain of FRMPD4, Q14CM0 (Q14CM0 67-160): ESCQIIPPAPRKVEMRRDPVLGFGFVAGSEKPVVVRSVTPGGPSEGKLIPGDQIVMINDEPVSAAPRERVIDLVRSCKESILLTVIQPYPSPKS

Inadl_2, Q8NI35 = molecular target: Inadl_2, Q8NI35
Chain of Inadl_2, Q8NI35 (Q8NI35 238-335): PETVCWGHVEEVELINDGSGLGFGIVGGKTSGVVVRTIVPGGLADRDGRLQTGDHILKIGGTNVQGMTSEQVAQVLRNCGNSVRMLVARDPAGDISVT

NHERF4_1, Q86UT5-2 = molecular target: NHERF4_1, Q86UT5-2
Chain of NHERF4_1, Q86UT5-2 (Q86UT5 other isoform, or with tags, fused parts or gaps): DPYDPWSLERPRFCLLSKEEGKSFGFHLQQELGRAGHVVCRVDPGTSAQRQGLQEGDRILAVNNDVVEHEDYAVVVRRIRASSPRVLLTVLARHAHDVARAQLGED

LDB3, O75112 = molecular target: LDB3, O75112
Chain of LDB3, O75112 (O75112 1-94): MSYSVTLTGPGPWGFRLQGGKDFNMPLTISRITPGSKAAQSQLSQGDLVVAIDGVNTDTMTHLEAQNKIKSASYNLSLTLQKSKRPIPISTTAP

GRIP1_2, Q9Y3R0 = molecular target: T6, GRIP1_2, Q9Y3R0
T6 sequence (Q9Y3R0 145-248, limits assumed, looked up): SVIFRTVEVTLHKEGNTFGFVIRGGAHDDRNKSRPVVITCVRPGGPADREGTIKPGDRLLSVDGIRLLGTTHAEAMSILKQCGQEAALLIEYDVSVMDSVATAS

GIPC2, Q8TF65 = molecular target: GIPC2, Q8TF65
Chain of GIPC2, Q8TF65 (Q8TF65 112-203): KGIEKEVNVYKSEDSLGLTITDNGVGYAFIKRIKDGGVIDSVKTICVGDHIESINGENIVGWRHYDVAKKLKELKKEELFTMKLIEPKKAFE

HTRA2, O43464 = molecular target: HTRA2, O43464
Chain of HTRA2, O43464 (O43464 355-458): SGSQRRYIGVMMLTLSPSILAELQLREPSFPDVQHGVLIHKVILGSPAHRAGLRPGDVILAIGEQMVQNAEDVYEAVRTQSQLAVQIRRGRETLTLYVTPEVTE

DLG4_3, P78352 = molecular target: DLG4_3, P78352
Chain of DLG4_3, P78352 (P78352 306-403): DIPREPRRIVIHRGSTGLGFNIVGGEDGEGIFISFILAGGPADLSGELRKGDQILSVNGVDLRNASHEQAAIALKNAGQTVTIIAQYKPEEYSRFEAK

LRRC7, Q96NW7 = molecular target: T7, LRRC7, Q96NW7
T7 sequence (Q96NW7 1440-1537, limits assumed, looked up): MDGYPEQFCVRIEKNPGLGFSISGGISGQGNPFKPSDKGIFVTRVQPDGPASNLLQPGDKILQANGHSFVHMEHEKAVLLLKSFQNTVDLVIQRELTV

FRMPD2_3, Q68DX3 = molecular target: FRMPD2_3, Q68DX3
Chain of FRMPD2_3, Q68DX3 (Q68DX3 1073-1166): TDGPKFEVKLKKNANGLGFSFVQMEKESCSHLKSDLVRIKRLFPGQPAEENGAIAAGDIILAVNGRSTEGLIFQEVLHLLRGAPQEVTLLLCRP

RAPGEF6, Q8TEU7 = molecular target: T8, RAPGEF6, Q8TEU7
T8 sequence (Q8TEU7 525-625, limits assumed, looked up): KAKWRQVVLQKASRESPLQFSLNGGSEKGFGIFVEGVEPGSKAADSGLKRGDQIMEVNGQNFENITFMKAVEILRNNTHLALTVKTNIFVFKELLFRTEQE

MPP7, Q5T2T1 = molecular target: T9, MPP7, Q5T2T1
T9 sequence (Q5T2T1 134-230, limits assumed, looked up): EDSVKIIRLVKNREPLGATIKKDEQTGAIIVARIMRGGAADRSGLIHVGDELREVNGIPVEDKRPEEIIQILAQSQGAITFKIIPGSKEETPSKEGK

MPP6, Q9NZW5 = molecular target: T10, MPP6, Q9NZW5
T10 sequence (Q9NZW5 125-219, limits assumed, looked up): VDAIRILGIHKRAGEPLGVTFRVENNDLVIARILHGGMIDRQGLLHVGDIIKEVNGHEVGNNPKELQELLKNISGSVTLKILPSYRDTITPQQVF

In the case of VKQYADVEGF [HNRNPK, P61978;P61978-2], the pKd (MPDZ_5, O75970) is reported as “below the threshold”, the pKd (CASK, O14936) is reported as “below the threshold” and the pKd (MAGI2_5, Q86UL8) is reported as “below the threshold”. The pKd (MAST1, Q9Y2H9) was “below the threshold”, the pKd (GRIP2_6, Q9C0E4) was “below the threshold” and the pKd (MAGI2_3, Q86UL8) was “below the threshold”. For the same binder, the pKd (Inadl_4, Q8NI35) was “below the threshold”, the pKd (MAGI3_2, Q5TCQ9) was “below the threshold” and the pKd (PDZRN4_1, Q6ZMN7) was “below the threshold”. The pKd (PTPN3, P26045) was 3.93, the pKd (IL16_1, Q14005) was “below the threshold” and the pKd (RADIL, Q96JH8) was “below the threshold”. The pKd (DFNB31_2, Q9P202) was “below the threshold”, the pKd (GRIP1_7, Q9Y3R0) was “below the threshold” and the pKd (MPDZ_10, O75970) was “below the threshold”. For the same binder, the pKd (FRMPD4, Q14CM0) was “below the threshold”, the pKd (Inadl_2, Q8NI35) was “below the threshold” and the pKd (NHERF4_1, Q86UT5-2) was 3.99. For the same binder, the pKd (LDB3, O75112) was “below the threshold”, the pKd (GRIP1_2, Q9Y3R0) was “below the threshold” and the pKd (GIPC2, Q8TF65) was “below the threshold”. For the same binder, the pKd (HTRA2, O43464) was “below the threshold”, the pKd (DLG4_3, P78352) was “below the threshold” and the pKd (LRRC7, Q96NW7) was “below the threshold”. The pKd (FRMPD2_3, Q68DX3) was “below the threshold”, the pKd (RAPGEF6, Q8TEU7) was “below the threshold” and the pKd (MPP7, Q5T2T1) was “below the threshold”.

For NTALVESEDL [PALLS, Q8WX93;Q8WX93-1], the pKd (MPDZ_5, O75970) was “below the threshold”, the pKd (CASK, O14936) was “below the threshold” and the pKd (MAGI2_5, Q86UL8) was “below the threshold”. For the same binder, the pKd (MAST1, Q9Y2H9) was 4.56, the pKd (GRIP2_6, Q9C0E4) was “below the threshold” and the pKd (MAGI2_3, Q86UL8) was “below the threshold”. The pKd (Inadl_4, Q8NI35) was “below the threshold”, the pKd (MAGI3_2, Q5TCQ9) was “below the threshold” and the pKd (PDZRN4_1, Q6ZMN7) was “below the threshold”. The pKd (PTPN3, P26045) was 4.33, the pKd (MPP6, Q9NZW5) was “below the threshold” and the pKd (IL16_1, Q14005) was “below the threshold”. For the same binder, the pKd (RADIL, Q96JH8) was “below the threshold”, the pKd (DFNB31_2, Q9P202) was “below the threshold” and the pKd (GRIP1_7, Q9Y3R0) was “below the threshold”. For the same binder, the pKd (MPDZ_10, O75970) was “below the threshold”, the pKd (Inadl_2, Q8NI35) was “below the threshold” and the pKd (NHERF4_1, Q86UT5-2) was “below the threshold”. For the same binder, the pKd (LDB3, O75112) was 5.16, the pKd (GRIP1_2, Q9Y3R0) was “below the threshold” and the pKd (GIPC2, Q8TF65) was “below the threshold”. The pKd (HTRA2, O43464) was “below the threshold”, the pKd (DLG4_3, P78352) was “below the threshold” and the pKd (LRRC7, Q96NW7) was “below the threshold”. The pKd (FRMPD2_3, Q68DX3) was “below the threshold”, the pKd (RAPGEF6, Q8TEU7) was “below the threshold” and the pKd (MPP7, Q5T2T1) was “below the threshold”.

SKQFDKNAYV [CLDN10, P78369] was tested, and the pKd (MPDZ_5, O75970) was “below the threshold”, the pKd (CASK, O14936) was “below the threshold” and the pKd (MAGI2_5, Q86UL8) was “below the threshold”. The pKd (MAST1, Q9Y2H9) was “below the threshold”, the pKd (GRIP2_6, Q9C0E4) was “below the threshold” and the pKd (MAGI2_3, Q86UL8) was “below the threshold”. For the same binder, the pKd (Inadl_4, Q8NI35) was “below the threshold”, the pKd (MAGI3_2, Q5TCQ9) was 3.67 and the pKd (PDZRN4_1, Q6ZMN7) was “below the threshold”. For the same binder, the pKd (PTPN3, P26045) was “below the threshold”, the pKd (MPP6, Q9NZW5) was “below the threshold” and the pKd (IL16_1, Q14005) was “below the threshold”. For the same binder, the pKd (RADIL, Q96JH8) was 4.18, the pKd (DFNB31_2, Q9P202) was “below the threshold” and the pKd (GRIP1_7, Q9Y3R0) was “below the threshold”. The pKd (MPDZ_10, O75970) was “below the threshold”, the pKd (FRMPD4, Q14CM0) was 3.59 and the pKd (Inadl_2, Q8NI35) was “below the threshold”. For the same binder, the pKd (NHERF4_1, Q86UT5-2) was “below the threshold”, the pKd (LDB3, O75112) was “below the threshold” and the pKd (GRIP1_2, Q9Y3R0) was “below the threshold”. For the same binder, the pKd (GIPC2, Q8TF65) was “below the threshold”, the pKd (HTRA2, O43464) was “below the threshold” and the pKd (DLG4_3, P78352) was “below the threshold”. For the same binder, the pKd (LRRC7, Q96NW7) was “below the threshold”, the pKd (FRMPD2_3, Q68DX3) was “below the threshold” and the pKd (RAPGEF6, Q8TEU7) was “below the threshold”. The pKd (MPP7, Q5T2T1) was “below the threshold”.

In the case of PAALPESTHM [SLC9A3, P48764], the pKd (MPDZ_5, O75970) is reported as “below the threshold”, the pKd (CASK, O14936) is reported as “below the threshold” and the pKd (MAGI2_5, Q86UL8) is reported as “below the threshold”. For the same binder, the pKd (MAST1, Q9Y2H9) was 4.63, the pKd (GRIP2_6, Q9C0E4) was “below the threshold” and the pKd (MAGI2_3, Q86UL8) was “below the threshold”. For the same binder, the pKd (Inadl_4, Q8NI35) was “below the threshold”, the pKd (MAGI3_2, Q5TCQ9) was “below the threshold” and the pKd (PDZRN4_1, Q6ZMN7) was “below the threshold”. The pKd (PTPN3, P26045) was “below the threshold”, the pKd (MPP6, Q9NZW5) was “below the threshold” and the pKd (IL16_1, Q14005) was “below the threshold”. The pKd (RADIL, Q96JH8) was “below the threshold”, the pKd (DFNB31_2, Q9P202) was “below the threshold” and the pKd (GRIP1_7, Q9Y3R0) was “below the threshold”. The pKd (MPDZ_10, O75970) was “below the threshold”, the pKd (FRMPD4, Q14CM0) was “below the threshold” and the pKd (Inadl_2, Q8NI35) was “below the threshold”. For the same binder, the pKd (NHERF4_1, Q86UT5-2) was 3.75, the pKd (LDB3, O75112) was “below the threshold” and the pKd (GRIP1_2, Q9Y3R0) was “below the threshold”. The pKd (GIPC2, Q8TF65) was “below the threshold”, the pKd (HTRA2, O43464) was “below the threshold” and the pKd (DLG4_3, P78352) was “below the threshold”. For the same binder, the pKd (LRRC7, Q96NW7) was “below the threshold”, the pKd (FRMPD2_3, Q68DX3) was “below the threshold” and the pKd (RAPGEF6, Q8TEU7) was “below the threshold”. For the same binder, the pKd (MPP7, Q5T2T1) was “below the threshold”.
